Results taken from PMC2094074 (Nucleic Acids Research, 2007).

B3: GST-hRad1 (natural protein, human, UniProt O60671 1-282, looked up)
chain: MPLLTQQIQDEDDQYSLVASLDNVRNLSTILKAIHFREHATCFATKNGIKVTVENAKCVQANAFIQAGIFQEFKVQEESVTFRINLTVLLDCLSIFGSSPMPGTLTALRMCYQGYGYPLMLFLEEGGVVTVCKINTQEPEETLDFDFCSTNVINKIILQSEGLREAFSELDMTSEVLQITMSPDKPYFRLSTFGNAGSSHLDYPKDSDLMEAFHCNQTQVNRYKISLLKPSTKALVLSCKVSIRTDNRGFLSLQYMIRNEDGQICFVEYYCCPDEEVPESES
B4: GST-hRad9 (natural protein, human, UniProt Q99638 1-391, looked up)
chain: MKCLVTGGNVKVLGKAVHSLSRIGDELYLEPLEDGLSLRTVNSSRSAYACFLFAPLFFQQYQAATPGQDLLRCKILMKSFLSVFRSLAMLEKTVEKCCISLNGRSSRLVVQLHCKFGVRKTHNLSFQDCESLQAVFDPASCPHMLRAPARVLGEAVLPFSPALAEVTLGIGRGRRVILRSYHEEEADSTAKAMVTEMCLGEEDFQQLQAQEGVAITFCLKEFRGLLSFAESANLNLSIHFDAPGRPAIFTIKDSLLDGHFVLATLSDTDSHSQDLGSPERHQPVPQLQAHSTPHPDDFANDDIDSYMIAMETTIGNEGSRVLPSISLSPGPQPPKSPGPHSEEEDEAEPSTVPGTPPPKKFRSLFFGSILAPVRSPQGPSPVLAEDSEGEG
B5: His-tagged hTDG-ΔC1(1-308) (domain or fragment, human, UniProt Q13569 1-308, looked up)
chain: MEAENAGSYSLQQAQAFYTFPFQQLMAEAPNMAVVNEQQMPEEVPAPAPAQEPVQEAPKGRKRKPRTTEPKQPVEPKKPVESKKSGKSAKSKEKQEKITDTFKVKRKVDRFNGVSEAELLTKTLPDILTFNLDIVIIGINPGLMAAYKGHHYPGPGNHFWKCLFMSGLSEVQLNHMDDHTLPGKYGIGFTNMVERTTPGSKDLSSKEFREGGRILVQKLQKYQPRIAVFNGKCIYEIFSKEVFGVKVKNLEFGLQPHKIPDTETLCYVMPSSSARCAQFPRAQDKVHYYIKLKDLRDQLKGIERNMDV
B6: His-tagged hHus1 expressed in E. coli (natural protein, human, UniProt O60921 1-280, looked up)
chain: MKFRAKIVDGACLNHFTRISNMIAKLAKTCTLRISPDKLNFILCDKLANGGVSMWCELEQENFFNEFQMEGVSAENNEIYLELTSENLSRALKTAQNARALKIKLTNKHFPCLTVSVELLSMSSSSRIVTHDIPIKVIPRKLWKDLQEPVVPDPDVSIYLPVLKTMKSVVEKMKNISNHLVIEANLDGELNLKIETELVCVTTHFKDLGNPPLASESTHEDRNVEHMAEVHIDIRKLLQFLAGQQVNPTKALCNIVNNKMVHFDLLHEDVSLQYFIPALS

How the values were obtained:
Test in all cases: pull-down
GST-hRad1 = target: B3
GST-hRad9 = target: B4
[1] = target: B6
[2] = target: His-tagged human thymine DNA glycosylase, full length (hTDG-full, residues 1-410) (human, UniProt Q13569 1-410)
[3] = target: B5
GST-hTDG (full length) = GST-hTDG (full length) (human, UniProt Q13569 1-410)

B1: His-tagged hTDG(67-308) (domain or fragment, human, UniProt Q13569 67-308, looked up)
chain: TTEPKQPVEPKKPVESKKSGKSAKSKEKQEKITDTFKVKRKVDRFNGVSEAELLTKTLPDILTFNLDIVIIGINPGLMAAYKGHHYPGPGNHFWKCLFMSGLSEVQLNHMDDHTLPGKYGIGFTNMVERTTPGSKDLSSKEFREGGRILVQKLQKYQPRIAVFNGKCIYEIFSKEVFGVKVKNLEFGLQPHKIPDTETLCYVMPSSSARCAQFPRAQDKVHYYIKLKDLRDQLKGIERNMDV
- binding result (GST-hRad1): binds
- binding result (GST-hRad9): binds

B2: GST-hTDG-N(1-124) (domain or fragment, human, UniProt Q13569 1-124, looked up)
chain: MEAENAGSYSLQQAQAFYTFPFQQLMAEAPNMAVVNEQQMPEEVPAPAPAQEPVQEAPKGRKRKPRTTEPKQPVEPKKPVESKKSGKSAKSKEKQEKITDTFKVKRKVDRFNGVSEAELLTKTL
- binding result [1]: binds

Binder: B3
- binding result [2]: binds
- binding result [3]: binds

Binder: B4
- binding result [2]: binds

Binder: B5
- binding result (GST-hRad9): binds

Binder: B6
- binding result (GST-hTDG (full length)): binds

B7: GST-hHus1 (natural protein, human, UniProt O60921 1-280, looked up)
chain: MKFRAKIVDGACLNHFTRISNMIAKLAKTCTLRISPDKLNFILCDKLANGGVSMWCELEQENFFNEFQMEGVSAENNEIYLELTSENLSRALKTAQNARALKIKLTNKHFPCLTVSVELLSMSSSSRIVTHDIPIKVIPRKLWKDLQEPVVPDPDVSIYLPVLKTMKSVVEKMKNISNHLVIEANLDGELNLKIETELVCVTTHFKDLGNPPLASESTHEDRNVEHMAEVHIDIRKLLQFLAGQQVNPTKALCNIVNNKMVHFDLLHEDVSLQYFIPALS
- binding result [3]: binds
